From the supplement of paper PMC6757056
± gives the standard deviation of the averaged measurements.

B1: library; a variant is named by its letters at N, in order (parent)
chain: GCUGUCACCGGUGCUUGGUACGUUAUAUUCAGCCGGUCUGAUGAGUCUNNNNNNAGACGAAACAGC

Experiments:
[1] = variants of: B1; assay: normalized RNA/DNA level without ligand (relative to sTRSVctl = 100) (log10 (% of sTRSVctl)); HEK293T overexpressing SLC46A1; higher = less ribozyme self-cleavage, higher mRNA level; details: without (6R,S)-folinic acid; ligand present: no
In short: (§1)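 RNA level was computed as RNA reads over DNA reads divided by a spiked-in non-cleaving sequence or by the top sequences, then scaled and log-transformed. Scaling was ×100 with log10, the top group was 25 sequences, and the threshold was ≥100 DNA reads. The reads came from HEK293T cells transfected at 4 µg per 6-well well with ribozyme switch library plasmids (mCherry, or eGFP in some ligand experiments). Total RNA was extracted with EDTA 72 h after transfection, with any ligand added 1 h before it.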

[2] = variants of: B1; assay: normalized RNA/DNA level with ligand (relative to sTRSVctl = 100) (log10 (% of sTRSVctl)); HEK293T overexpressing SLC46A1; ligand concentration (+) RNA-Seq: 6 mM; higher = less ribozyme self-cleavage, higher mRNA level; details: with (6R,S)-folinic acid; ligand present: yes
In short: as §1

Variant | normalized RNA/DNA level without ligand (log10) [1] | normalized RNA/DNA level with ligand (log10) [2]
GCUGUCACCGGUGCUUGGUACGUUAUAUUCAGCCGGUCUGAUGAGUCUGACUCUAGACGAAACAGC [GACUCU] | 2.033 ± 0.0069 | 2 ± 0.066
GCUGUCACCGGUGCUUGGUACGUUAUAUUCAGCCGGUCUGAUGAGUCUAACUUUAGACGAAACAGC [AACUUU] | 2.01 ± 0.022 | 2.01 ± 0.022
GCUGUCACCGGUGCUUGGUACGUUAUAUUCAGCCGGUCUGAUGAGUCUAACUUCAGACGAAACAGC [AACUUC] | 2.063 ± 0.0082 | 2.039 ± 0.014
GCUGUCACCGGUGCUUGGUACGUUAUAUUCAGCCGGUCUGAUGAGUCUAACUGUAGACGAAACAGC [AACUGU] | 1.97 ± 0.016 | 2.007 ± 0.02
GCUGUCACCGGUGCUUGGUACGUUAUAUUCAGCCGGUCUGAUGAGUCUAACUGCAGACGAAACAGC [AACUGC] | 2.048 ± 0.015 | 2.06 ± 0.038
GCUGUCACCGGUGCUUGGUACGUUAUAUUCAGCCGGUCUGAUGAGUCUUAGAACAGACGAAACAGC [UAGAAC] | 1.979 ± 0.012 | 2 ± 0.033
GCUGUCACCGGUGCUUGGUACGUUAUAUUCAGCCGGUCUGAUGAGUCUUACUGUAGACGAAACAGC [UACUGU] | 1.936 ± 0.0083 | 1.98 ± 0.02
GCUGUCACCGGUGCUUGGUACGUUAUAUUCAGCCGGUCUGAUGAGUCUUACUGAAGACGAAACAGC [UACUGA] | 1.9244 ± 0.0015 | 2.03 ± 0.034
GCUGUCACCGGUGCUUGGUACGUUAUAUUCAGCCGGUCUGAUGAGUCUCAGAAGAGACGAAACAGC [CAGAAG] | 1.925 ± 0.006 | 2.02 ± 0.03
GCUGUCACCGGUGCUUGGUACGUUAUAUUCAGCCGGUCUGAUGAGUCUCAGAACAGACGAAACAGC [CAGAAC] | 2.003 ± 0.0049 | 2.02 ± 0.056
GCUGUCACCGGUGCUUGGUACGUUAUAUUCAGCCGGUCUGAUGAGUCUUACUUCAGACGAAACAGC [UACUUC] | 2.0503 ± 0.00055 | 2.03 ± 0.042
GCUGUCACCGGUGCUUGGUACGUUAUAUUCAGCCGGUCUGAUGAGUCUUACUUAAGACGAAACAGC [UACUUA] | 1.9834 ± 0.00066 | 2.01 ± 0.0084
GCUGUCACCGGUGCUUGGUACGUUAUAUUCAGCCGGUCUGAUGAGUCUUACUUUAGACGAAACAGC [UACUUU] | 2.001 ± 0.0048 | 2.03 ± 0.042
GCUGUCACCGGUGCUUGGUACGUUAUAUUCAGCCGGUCUGAUGAGUCUCACUUUAGACGAAACAGC [CACUUU] | 1.985 ± 0.013 | 1.98 ± 0.036
GCUGUCACCGGUGCUUGGUACGUUAUAUUCAGCCGGUCUGAUGAGUCUCACUUGAGACGAAACAGC [CACUUG] | 2.032 ± 0.0036 | 2.03 ± 0.0041
GCUGUCACCGGUGCUUGGUACGUUAUAUUCAGCCGGUCUGAUGAGUCUCACUUCAGACGAAACAGC [CACUUC] | 2.04 ± 0.03 | 2.026 ± 0.012
GCUGUCACCGGUGCUUGGUACGUUAUAUUCAGCCGGUCUGAUGAGUCUCACUUAAGACGAAACAGC [CACUUA] | 1.952 ± 0.0058 | 1.97 ± 0.058
GCUGUCACCGGUGCUUGGUACGUUAUAUUCAGCCGGUCUGAUGAGUCUGACUGGAGACGAAACAGC [GACUGG] | 2.023 ± 0.018 | 2.018 ± 0.018
GCUGUCACCGGUGCUUGGUACGUUAUAUUCAGCCGGUCUGAUGAGUCUGACUGUAGACGAAACAGC [GACUGU] | 1.98 ± 0.011 | 1.98 ± 0.068
GCUGUCACCGGUGCUUGGUACGUUAUAUUCAGCCGGUCUGAUGAGUCUGACUGAAGACGAAACAGC [GACUGA] | 2.03 ± 0.02 | 2 ± 0.025
